Measurements: US20080299132A1, “Synergistic compositions for treating HIV-1” (Roche Palo Alto LLC, priority 2006, published 2008)
Blank lines part the entries; values can stand above or below the molecule they belong to.

Key:
[1] = molecular target: T1, CCR5 (Homo sapiens, UniProt P51681); test: Drug interaction (synergy) analysis of two-drug combinations in the CCF assay (Greco and Prichard models); type: cell-based; parameters: host or cells: CEM-NKr-CCR5-Luc
Description: For the in vitro cell-cell fusion studies, the possibility of either enhanced (synergy) or reduced (antagonism) efficacy of CCR5 antibodies in combination with CCR5 antagonists was considered.
The concentration response surface approach described by Greco et al. (Cancer Res. 1990 50:5318-5327) was used to analyze the data. A seven-parameter non-linear model (i) was fit to all experimental data including percent inhibitions calculated from replicates for all concentrations of the two drugs alone and in combination from two 384-well plates. […]
Loewe additivity or no interaction is indicated when the 95% confidence interval of a includes 0. Furthermore, the predicted additivity of the drugs combined was calculated by using all estimated parameters of the Greco model, except a that is fixed at 0. […]
Theoretical additive interactions were calculated from the dose response curves of the individual drugs based on the Bliss Independence equation. […]
The total sum of differences between the observed percent inhibitions and the upper bound of 95% confidence interval of predicted additive percentages is calculated as a statistically significant synergy volume ΣSYN. The total sum of differences between the observed percent inhibitions and the lower bound of 95% confidence interval of predicted additive percentages is calculated as a statistically significant antagonism volume ΣANT. […]

[2] = molecular target: T1, CCR5; conditions: cited from earlier work
[3] = molecular target: T1, CCR5; test: 3H-MVC binding to CHO-CCR5 cells after pre-incubation with CCR5 mAbs; conditions: CHO-CCR5 cells preincubated with 30 μg/mL mAb, 26 nM 3H-MVC
Method: The cells (2×10^5/100 μL) were pre-incubated with 30 μg/mL of CCR5 mAbs or PBS at RT for 1 h, then incubated with 26 nM of ^3H-MVC. At the end of various time points, cells were washed and the membrane bound ^3H-MVC was measured as described in Example 2. The maximal counts from the control samples were set as 100% binding and the relative binding for all other samples were calculated and the time course curves were generated based on these relative binding at each time point.
(§1) The potential for synergism should be maximized when both the antibody and the low molecular weight antagonist (or fusion or attachment inhibitor) can bind independently to the CCR5 receptor.

[4] = molecular target: T1, CCR5; test: CCR5 mAb binding to CHO-CCR5 cells after pre-incubation with CCR5 antagonists (FACS); conditions: pre-incubation with 50 nM MVC, AK602 or SCH-D, RT 1 h
Description: FIG. 4—The graph illustrates the effect of CCR5 antagonists on the time course of 5 mAb binding. […] The time course curves for each mAb in the presence of various antagonists were created based on their mean fluorescence intensity (MFI) values.
as §1

T1 sequence (P51681 whole entry): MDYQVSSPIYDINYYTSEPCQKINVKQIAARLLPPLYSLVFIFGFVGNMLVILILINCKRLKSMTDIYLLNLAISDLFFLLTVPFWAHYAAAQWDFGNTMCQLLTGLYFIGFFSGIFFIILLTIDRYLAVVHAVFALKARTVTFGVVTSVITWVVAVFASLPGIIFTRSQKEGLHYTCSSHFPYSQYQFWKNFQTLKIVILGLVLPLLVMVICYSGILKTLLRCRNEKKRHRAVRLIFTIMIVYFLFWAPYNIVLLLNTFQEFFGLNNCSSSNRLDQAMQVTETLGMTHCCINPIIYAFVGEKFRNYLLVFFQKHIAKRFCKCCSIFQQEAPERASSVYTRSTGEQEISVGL

- drug interaction in words (synergy / antagonism) ([1]; combination in cell-cell fusion assay): highest synergy
Molecule: CCCCN1C(=O)[C@@H]([C@H](O)C2CCCCC2)NC(=O)C12CCN(Cc1ccc(Oc3ccc(C(=O)O)cc3)cc1)CC2 [AK602, reference compound]
- effect on the binding of mAb 45523, in words [2]: completely blocked

- higher synergy than ROAb14 when combined with MVC ([1]; combination with MVC): approximately 60%
- effect on MVC binding, in words [3]: no effect
- mAb binding to CHO-CCR5 cells, effect of CCR5 antagonists, in words [4]: unaffected
B1: RoAb13: mouse anti-human CCR5 monoclonal antibody (Roche), binds the N-terminal end of CCR5 (antibody, V domains shown)
VH: EVKLVESGGGLVKPGGSLKLSCAASGFTFSTYAMSWVRQTPEKRLEWVASISTGDNTYYTDSVRGRFTISRDNARNILYLQMSSLRSEDTAMYFCTRGRGDRGDLFGYWGQGTLVTVSS
VL: DIVMSQSPSSLAVSVGEKVTMSCKSSQSLLYRGNQMNYLAWYQQKPGQSPKLLIYWASTRESGVPDRFTGSGSGTEFTLTISSVKAEDLTVYYCQQYYTYPRTFGGGTKLEIKR
